Results as given in patent US7041642B1, “Fluorescent bombesin-like peptides” (PerkinElmer LAS, Inc., priority 1995, dated 2006).
Ends that are not written are not given here. fluorescein = fluorescein label (light-emitting moiety) attached to the peptide

Experiments:
BB1 (NMB receptor) = biological target: T1, BB1 (NMB receptor) (Homo sapiens, UniProt P28336); assay: Radioligand displacement binding, recombinant cells expressing BB1 (NMB receptor)
T1 construct: expressed in transfected cells
Experimental: (§1) All experimental results were obtained by displacing radiolabeled bombesin from the designated receptor, except for the results obtained for GRP which used radiolabeled GRP. Other receptors used in binding assays include the NMB receptor, the bombesin-receptor subtype 2 (BB2) and the bombesin receptor subtype 3 (BB3). As mentioned above, the biological activities of fluoresceinyl-NMC as well as fluoresceinyl-GRP compounds were determined in non-selective assay by binding to BB1, BB2 and BB3 expressed by rat brain neurons whereas the biological activities of fluoresceinyl-NMB and [Dphe^6, Ala^11, Phe^13, Nle^14]Bbn(6–14) compounds were determined by using recombinant cells expressing the BB1 (NMB receptor) or BB2 and BB3 receptors respectively.
Determination of IC50 for labeled peptides. […] In order to fully dissolve the peptide, the sample was reconstituted in 20 uL DMSO, vortexing well to ensure that all powder was completely dissolved, and then adding 0.48 mL of double distilled water. The stock solution was aliquoted to avoid repeated freezing and thawing of peptide. Unused aliquots were stored at −20° C. (protected from light) for maximum 24 hr. […]
(§2) Data for native and labeled peptides were analyzed by non-linear curve fitting. […]

BB1, BB2, BB3 = assay: Non-selective radioligand displacement binding, rat cerebral cortex / brain neurons
Experimental: Referring now to FIG. 4, a fluoresceinyl-NMC peptide with the amino aid sequence […]NH2 (SEQ ID NO:4) was tested to determine its affinity for NMC receptor sites. The fluoresceinyl-NMC peptide compound absorbs light maximally at 494 nm and features an emission spectrum centered around 518 nm. […] The IC50 is related to the binding constant Ki by the formula IC50=Ki (1+FL/Kd), where FL is the concentration of the free labeled ligand and Kd is the dissociation constant for the labeled ligand.
as §1
Determination of IC50 for labeled peptides. […] In order to fully dissolve the peptide, the sample was reconstituted in 20 uL DMSO, vortexing well to ensure that all powder was completely dissolved, and then adding 0.48 mL of double distilled water. The stock solution was aliquoted to avoid repeated freezing and thawing of peptide. Unused aliquots were stored at −20° C. (protected from light) for maximum 24 hr.
Receptor binding was carried out on tissues of rat cortex homogenate for GRP, recombinant cells expressing BB1 (NMB receptor) for NMB, or recombinant cells expressing BB2 and BB3 for [Dphe^6, Ala^11, Phe^13, Nle^14]Bbn(6–14). […]
as §2

[1] = biological target: bombesin 2 receptor (BB2 or GRP receptor), recombinant cells; assay: radioligand displacement, recombinant cells expressing BB2
[2] = biological target: bombesin 3 receptor (BB3 or orphan bombesin receptor), recombinant cells; assay: radioligand displacement, recombinant cells expressing BB3
[3] = biological target: BB1, BB2 and BB3 expressed by rat brain neurons; assay: displacement of radiolabeled bombesin, rat cerebral cortex
[4] = biological target: BB1, BB2 and BB3 expressed by rat brain neurons; assay: radioligand displacement (radiolabeled bombesin), rat cerebral cortex, non-selective
[5] = biological target: BB1, BB2 and BB3 expressed by rat brain neurons; assay: radioligand displacement (radiolabeled GRP), rat cortex homogenate, non-selective
[6] = biological target: bombesin 1 receptor (BB1 or NMB receptor), recombinant cells; assay: radioligand displacement, recombinant cells expressing BB1 (NMB receptor)

bombesin 3 receptor (BB3 or orphan bombesin receptor), recombinant cells, sequence (P32247 whole entry): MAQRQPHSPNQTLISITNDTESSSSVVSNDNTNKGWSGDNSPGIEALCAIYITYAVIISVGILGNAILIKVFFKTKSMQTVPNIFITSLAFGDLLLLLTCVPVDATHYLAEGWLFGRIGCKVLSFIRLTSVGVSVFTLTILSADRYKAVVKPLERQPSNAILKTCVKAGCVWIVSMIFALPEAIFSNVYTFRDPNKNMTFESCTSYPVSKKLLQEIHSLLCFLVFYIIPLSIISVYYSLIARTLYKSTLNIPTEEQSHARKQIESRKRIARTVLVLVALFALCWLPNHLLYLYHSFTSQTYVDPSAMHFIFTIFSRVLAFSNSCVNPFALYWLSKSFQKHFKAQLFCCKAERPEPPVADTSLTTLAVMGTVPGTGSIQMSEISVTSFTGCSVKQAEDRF
T1 sequence (P28336 whole entry): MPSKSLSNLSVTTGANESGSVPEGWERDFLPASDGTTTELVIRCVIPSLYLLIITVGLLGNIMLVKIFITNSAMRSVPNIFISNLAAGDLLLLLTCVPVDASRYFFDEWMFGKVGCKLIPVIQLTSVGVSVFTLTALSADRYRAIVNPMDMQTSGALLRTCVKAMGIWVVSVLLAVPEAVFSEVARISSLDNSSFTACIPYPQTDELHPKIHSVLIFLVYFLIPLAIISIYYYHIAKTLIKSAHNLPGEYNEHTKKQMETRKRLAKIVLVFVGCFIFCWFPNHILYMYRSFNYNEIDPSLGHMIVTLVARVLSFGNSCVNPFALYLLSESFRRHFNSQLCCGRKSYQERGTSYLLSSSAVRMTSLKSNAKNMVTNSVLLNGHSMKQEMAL

`CSCC[C@H](NC(=O)[C@H](Cc1ccccc1)NC(=O)[C@H](Cc1cnc[nH]1)NC(=O)CNC(=O)[C@@H](NC(=O)[C@H](C)NC(=O)[C@H](Cc1c[nH]c2ccccc12)NC(=O)[C@H](CC(C)C)NC(=O)[C@H](CC(N)=O)NC(=O)CN)[C@@H](C)O)C(N)=O` [NMB] showed a Ki (BB1 (NMB receptor)) of 0.1 nM.

For VPLPAGGGTVLTKMYPRGNHWAVGHLM [GRP], the Ki (BB1, BB2, BB3; displacement of radiolabeled GRP, BB1, BB2, BB3, rat cortex homogenate) was 2 nM.

“[Dphe^6, Ala^11, Phe^13, Nle^14]Bbn(6-14) (peptide)” showed a Ki [1] of 0.17 nM and a Ki [2] of 23 nM.

With “fluoresceinyl-NMC peptide, sequence Gly-Asn-His-Trp-Ala-Val-Gly-His-Leu-Met-NH2 (SEQ ID NO:4), fluorescein at N-terminus (fluorescein-GNHWAVGHLM-NH2; listed as Sus scrofa) [Fluo*-NMC]” the Ki (BB1, BB2, BB3; displacement of radiolabeled bombesin, BB1, BB2, BB3 of rat brain neurons) was 3.2 nM and the IC50 (BB1, BB2, BB3; read-out: IC50 (concentration at which 50% of the binding is inhibited), displacement of radiolabeled bombesin, receptors on rat cerebral cortex neurons) was 3.2 nM.

“fluoresceinyl-[Dphe^6, Ala^11, Phe^13, Nle^14]Bbn(6-14) (peptide)” gave a Ki [1] of 0.26 nM and a Ki [2] of 86 nM.

Work on {fluorescein (carboxylic form)}-GNHWAVGHLM-NH2 [fluoresceinyl-NMC peptide] yielded an IC50 [3] of 3.2 nM and a Ki [4] of 3.2 nM.

For VPLPAGGGTVLTKMYPRGNHWAVGHLM-NH2 [GRP], the Ki [5] was 2 nM.

In the case of GNLWATGHFM-NH2 [NMB], the Ki [6] is reported as 0.1 nM.

In the case of {fluorescein (carboxylic form)}-GNLWATGHFM-NH2 [fluoresceinyl-NMB], the Ki [6] is reported as 7 nM.

{fluorescein (carboxylic form)}-VPLPAGGGTVLTKMYPRGNHWAVGHLM-NH2 [fluoresceinyl-GRP] gave a Ki [5] of 32 nM.
